Biological target: nLUC-TaPYL-1D (Triticum aestivum (bread wheat))
Experiment: split reporter (BiFC, NanoBiT); LCI of cLUC-TaPP2C-7A with nLUC-TaPYL-1D in N. benthamiana leaves with a third protein co-expressed (TN1-GFP, tn1-GFP or GFP empty vector); relative luminescence, GFP EV combination set to 1

## TN1-GFP (natural protein)
  percent decrease of LUC intensity of cLUC-TaPP2C-7A/nLUC-TaPYL-1D against the GFP EV samples: > 50%

From paper PMC9929037
